The results in this text go back to publication PMC3601584 (Nature communications, 2013).

Data set [1] deals with T1, TPST2ΔC18 (38 kDa core domain of human tyrosylprotein sulfotransferase-2, Gly43–Leu359) (human, UniProt O60704 43-359).
T1 sequence (looked up): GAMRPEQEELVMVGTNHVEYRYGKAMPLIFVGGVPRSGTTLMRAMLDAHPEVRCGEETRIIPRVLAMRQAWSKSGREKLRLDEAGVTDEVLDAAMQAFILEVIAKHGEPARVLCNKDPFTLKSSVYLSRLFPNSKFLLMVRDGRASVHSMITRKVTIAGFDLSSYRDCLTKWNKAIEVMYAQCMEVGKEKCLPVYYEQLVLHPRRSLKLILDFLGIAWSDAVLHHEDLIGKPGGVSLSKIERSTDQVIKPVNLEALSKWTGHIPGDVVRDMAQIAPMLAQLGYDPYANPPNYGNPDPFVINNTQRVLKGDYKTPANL
The experiment in a line: crystal structure.

The data set “crystal structure” deals with the molecule itself. The data set can be described thus: crystal structure.

B1: C4P5Y3 peptide (substrate peptide derived from human complement C4) (peptide)
peptide: EDFEDYEFD
B1: the binding result in data set [1] is “binds”.

B2: TPST2 (proposed catalytic domain of human tyrosylprotein sulfotransferase-2, Gly43-Ser377) (domain or fragment, UniProt O60704 43-377, looked up)
chain: GAMRPEQEELVMVGTNHVEYRYGKAMPLIFVGGVPRSGTTLMRAMLDAHPEVRCGEETRIIPRVLAMRQAWSKSGREKLRLDEAGVTDEVLDAAMQAFILEVIAKHGEPARVLCNKDPFTLKSSVYLSRLFPNSKFLLMVRDGRASVHSMITRKVTIAGFDLSSYRDCLTKWNKAIEVMYAQCMEVGKEKCLPVYYEQLVLHPRRSLKLILDFLGIAWSDAVLHHEDLIGKPGGVSLSKIERSTDQVIKPVNLEALSKWTGHIPGDVVRDMAQIAPMLAQLGYDPYANPPNYGNPDPFVINNTQRVLKGDYKTPANLKGYFQVNQNSTSSHLGSS
Turning to B2, in the data set “crystal structure”, the binding result is reported as “binds”.
